# Molecular target: mCherry-LacR-CSB-ATPase
# Experiment: immunofluorescence co-localisation at the lac operator array (mCherry-LacR tethering) in U2OS-265 cells
# Settings: 250 Myc-expressing cells scored per experiment; three independent experiments; parent: est. 28; read off a plot
row,response,Substance
1,30 % of cells,Myc-CSB-N S10D; S158D
2,17 % of cells,Myc-CSB-N S10A; S158A
3,18 % of cells,Myc-CSB-N S158A
4,21 % of cells,Myc-CSB-N S10A
5,32 % of cells,Myc-CSB-N S10D
6,28 % of cells,Myc-CSB-N S158D
